The results in this text go back to patent publication US20090202533A1 (CSL, published 2009).

In experiment [1] the target is IL-11R-Fc. The experiment can be described thus: competition ELISA on IL-11R-Fc.
The target in experiment [2] is T1, murine IL-11R on Ba/F3 cells stably transfected with murine IL-11R/gp130 (murine, UniProt Q64385 24-432).
T1 sequence (looked up): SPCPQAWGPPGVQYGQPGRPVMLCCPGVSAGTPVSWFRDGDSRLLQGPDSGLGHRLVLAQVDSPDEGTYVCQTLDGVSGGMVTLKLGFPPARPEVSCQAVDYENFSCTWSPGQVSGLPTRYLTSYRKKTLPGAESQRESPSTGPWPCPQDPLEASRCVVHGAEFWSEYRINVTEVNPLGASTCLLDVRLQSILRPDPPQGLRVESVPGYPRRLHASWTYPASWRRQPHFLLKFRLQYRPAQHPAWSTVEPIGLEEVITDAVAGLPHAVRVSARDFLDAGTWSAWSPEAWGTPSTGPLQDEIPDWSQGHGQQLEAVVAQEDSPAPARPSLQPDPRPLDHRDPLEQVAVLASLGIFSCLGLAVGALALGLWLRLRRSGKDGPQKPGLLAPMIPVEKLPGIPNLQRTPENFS
Nature of the experiment: cell-based or functional assay.

Experiment [3] concerns the target IL-11R-Fc. The experiment can be described thus: IL-11R binding ELISA.

Turning to “IL-11 mutein of SEQ ID NO: 1 (AMSAG at positions 58-62 of mature murine IL-11 replaced with PAIDY, tryptophan at position 147 replaced with alanine), N-terminal His-tagged (from UniProt P47873 22-199) (ligand)”, the fold higher binding affinity than murine W147A IL-11 in the experiment with IL-11R-Fc [1] is 20 fold.

B1: PEGylated mutein (mutein of SEQ ID NO: 3 with a single 40 kDa PEG moiety on the Cys introduced at position 147) (ligand)
chain: VSSDPRADLDSAVLLTRSLLADTRQLAAQMRDKFPADGDHSLDSLPTLPAIDYTLGSLQLPGVLTRLRVDLMSYLRHVQWLRRAGGPSLKTLEPELGALQARLERLLRRLQLLMSRLALPQAAPDQPVIPLGPPASACGSIRAAHAILGGLHLTLDWAVRGLLLLKTRL
modifications: mPEG2-maleimide (single 40 kDa PEG moiety) on the Cys introduced at position 147 (position as printed, numbering of mature murine IL-11)
Turning to B1, the “ability to antagonize IL-11-induced Ba/F3 cell proliferation, relative to non-PEGylated mutein” value in experiment [2] was about 10 fold. The molecule further yielded a fold reduction of binding affinity relative to non-PEGylated mutein with IL-11R-Fc [3] of 5 fold.
